The values that follow come from patent publication US20210380667A1 (NOVOZYMES A S, published 2021).

The target of test [1] is B. lentus protease variant having the amino acid sequence of SEQ ID NO: 2 with the substitutions S9E N43R N76D V205I Q206L Y209W S259D N261W L262E (Bacillus lentus), P29600. The test can be described thus: cell-based or functional assay.
The target in test [2] is T1, B. lentus protease having SEQ ID NO: 2 (Savinase) (Bacillus lentus, UniProt P29600 1-269).
T1 sequence: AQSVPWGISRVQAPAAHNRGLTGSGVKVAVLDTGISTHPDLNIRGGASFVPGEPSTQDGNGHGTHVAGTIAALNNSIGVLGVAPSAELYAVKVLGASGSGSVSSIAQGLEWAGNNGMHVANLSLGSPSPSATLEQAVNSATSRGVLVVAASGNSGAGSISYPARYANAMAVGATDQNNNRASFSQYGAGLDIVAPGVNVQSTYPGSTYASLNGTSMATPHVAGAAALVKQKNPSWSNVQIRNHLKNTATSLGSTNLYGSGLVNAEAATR
The test is described as follows: cell-based or functional assay.

Where a chain is given by its changes, count along the chain named. Names and notes keep the numbering of the source.

B1: CI-2A variant (CI08) K21H+P25S+E26H+K30H+E33H (protein)
chain: HNLHTEWSHLVGHSVHEAKKVILQDKPEAQIIVLPVGTIVTMEYRIDRVRLFVDKLDNIAQVPRVG
Turning to B1, in test [1], the pH value at which the released protease activity peaks fell in the range of 3.5 to 4 pH.

B2: CI-2A wildtype having the amino acid sequence of the mature protein of SEQ ID NO:1 (barley chymotrypsin inhibitor 2a) (other)
chain: B1 chain with H4K, S8P, H9E, H13K, H16E
Regarding B2, the figures for the pH value at which the released protease activity peaks in test [1] and in test [2] were 3 pH and about 3.5 pH, respectively.

B3: CI-2A variant (CI10) K30H+E33H+K43H+P44A+P52A, P01053 19-84 (protein)
chain: B1 chain with H4K, S8P, H9E, K26H, P27A, P35A
B3: in test [1], the pH value at which the released protease activity peaks lay in the range of 3.5 to 4 pH.
